According to patent CN114409777A (SHAANXI HISINOVEC SCIENCE AND TECH LIMITED COMPANY, dated 2022):

Molecular target: T1, 脆弱拟杆菌毒素BFT1全长蛋白(BFT1-sFL)，不含信号肽 (Bacteroides fragilis (产肠毒素脆弱拟杆菌, ETBF), UniProt P54355 26-405)
T1 construct: domain: 不含信号肽全长 (full length without signal peptide, pro domain kept); Recombinant protein from E. coli; This is not the processed catalytic domain alone: the pro domain is still present; also called BFT重组蛋白; BFT全长
T1 sequence: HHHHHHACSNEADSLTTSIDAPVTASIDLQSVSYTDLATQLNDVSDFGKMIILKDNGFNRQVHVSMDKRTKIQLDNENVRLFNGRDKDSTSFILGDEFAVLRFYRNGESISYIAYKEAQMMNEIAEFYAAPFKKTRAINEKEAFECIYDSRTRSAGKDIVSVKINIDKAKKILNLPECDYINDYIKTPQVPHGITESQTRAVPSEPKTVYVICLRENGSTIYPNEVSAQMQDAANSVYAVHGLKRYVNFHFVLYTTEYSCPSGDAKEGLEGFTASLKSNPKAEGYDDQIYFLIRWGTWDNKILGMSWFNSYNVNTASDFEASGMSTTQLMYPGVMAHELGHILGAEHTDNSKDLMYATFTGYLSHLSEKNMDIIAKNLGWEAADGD
Assay: ITC (Microcal PEAQ-ITC), 20℃, nanobody about 20 μM, BFT1-sFL about 200 μM, 20mM Tris-HCl pH 8.0, 150mM NaCl, 5% glycerol

B1: 结直肠癌相关的抗脆弱拟杆菌毒素蛋白激活体的特异性纳米抗体Nb3.27 (VHH)
VHH: QVQLQESGGGLVQAGGSLRLSCTYSGQTFSAWAMGWFRQAPGKERETVATINWNGERTQYADAVKGRFTISRDNAKDTVYLEMNSLKPEDTAVYYCASMMGTYYSGSPKNWGQGTQVTVSS
notes: also called BFT-211纳米抗体; BFT1-sFL纳米抗体
  Kd: 15.3 nM
